This test has as its target naturally occurring Tek as expressed on human endothelial cells (human) (UniProt Q02763). In words: flow cytometry on HMVEC-d, mAb 5 µg/ml, competitor human Ang2 10 µg/ml; negative control antibody. (Flow cytometry measures light scatter and fluorescence of single cells or particles in a stream.)
Chain of UniProt Q02763 (Q02763 23-1124): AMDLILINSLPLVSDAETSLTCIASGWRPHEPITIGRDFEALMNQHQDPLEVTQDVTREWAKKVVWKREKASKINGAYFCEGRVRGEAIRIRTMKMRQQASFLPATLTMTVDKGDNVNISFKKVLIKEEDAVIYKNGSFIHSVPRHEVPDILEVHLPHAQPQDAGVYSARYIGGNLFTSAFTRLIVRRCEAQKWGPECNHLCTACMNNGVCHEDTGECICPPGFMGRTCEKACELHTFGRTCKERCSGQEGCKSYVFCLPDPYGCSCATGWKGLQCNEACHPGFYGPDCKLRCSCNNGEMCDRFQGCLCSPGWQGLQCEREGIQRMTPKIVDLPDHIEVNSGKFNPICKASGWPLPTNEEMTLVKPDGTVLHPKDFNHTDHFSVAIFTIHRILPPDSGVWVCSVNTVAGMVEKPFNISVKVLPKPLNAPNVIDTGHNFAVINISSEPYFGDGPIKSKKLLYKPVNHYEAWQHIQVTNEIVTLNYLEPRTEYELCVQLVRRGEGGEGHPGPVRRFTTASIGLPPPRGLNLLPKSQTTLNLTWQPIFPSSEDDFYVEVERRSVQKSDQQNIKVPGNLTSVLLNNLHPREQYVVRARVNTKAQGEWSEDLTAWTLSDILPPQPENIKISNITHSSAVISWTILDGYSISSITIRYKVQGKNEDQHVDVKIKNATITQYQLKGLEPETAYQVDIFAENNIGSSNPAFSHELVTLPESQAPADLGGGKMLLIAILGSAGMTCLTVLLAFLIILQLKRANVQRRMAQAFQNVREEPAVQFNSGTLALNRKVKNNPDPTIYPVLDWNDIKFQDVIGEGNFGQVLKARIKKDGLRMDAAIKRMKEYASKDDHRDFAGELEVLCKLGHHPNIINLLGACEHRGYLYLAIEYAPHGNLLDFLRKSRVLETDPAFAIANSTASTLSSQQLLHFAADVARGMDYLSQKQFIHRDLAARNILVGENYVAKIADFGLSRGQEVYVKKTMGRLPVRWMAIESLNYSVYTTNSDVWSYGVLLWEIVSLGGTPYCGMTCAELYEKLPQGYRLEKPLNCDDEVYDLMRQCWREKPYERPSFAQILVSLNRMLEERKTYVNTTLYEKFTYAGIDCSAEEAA

For “IgG1 negative control mAb (MOPC21) (antibody)”, the Percent Inhibition of Antibody Binding by Ang2 was 0%.

The values are drawn from patent US20030162712A1.
